Results reported in article doi:10.1101/2021.08.28.457928 (bioRxiv, 2021).

B1: isolated FERM domain of human SNX27 (domain or fragment, UniProt Q96L92 269-531, looked up)
chain: YNGVSDVELRVALPDGTTVTVRVKKNSTTDQVYQAIAAKVGMDSTTVNYFALFEVISHSFVRKLAPNEFPHKLYIQNYTSAVPGTCLTIRKWLFTTEEEILLNDNDLAVTYFFHQAVDDVKKGYIKAEEKSYQLQKLYEQRKMVMYLNMLRTCEGYNEIIFPHCACDSRRKGHVITAISITHFKLHACTEEGQLENQVIAFEWDEMQRWDTDEEGMAFCFEYARGEKKPRWVKIFTPYFNYMHECFERVFCELKWRKENIFQM
notes: FERM domain of human SNX27; The AlphaFold2 modelling took the FERM domain as residues 269 to 531; also called hSNX27_(FERM)

Tests used:
Conditions in all cases: both partners purified
full-length mouse SNX27 = molecular target: T1, full-length mouse SNX27 (mouse, UniProt Q3UHD6 1-539); experiment: ITC; 800 μM SNX1 or SNX2 peptide titrated into 20 μM full-length mouse SNX27; 25 °C; 50 mM HEPES pH 7.5, 200 mM NaCl, 5% glycerol, 1 mM β-ME with 1:10 peptide buffer (100 mM Tris-HCl pH 10.6); single-site model
T1 construct: SNX27, mouse, full length; Vector pMCSG7, ligation independent cloning; also called mSNX27FL

human SNX27(K496D) = molecular target: T2, human SNX27(K496D) (human, UniProt Q96L92 1-541, K496D); experiment: ITC; 600 μM SNX1(75-92) peptide titrated into 20 μM hSNX27 wild type or single-site mutant; 25 °C; 50 mM HEPES pH 7.5, 200 mM NaCl, 5% glycerol, 1 mM β-ME; single-site model
T2 construct: SNX27, human, full length; the text prints R496D, the methods and the legend K496D; also called hSNX27 K496D; SNX27(R496D)

[1] = molecular target: T3, human SNX27 full length, wild type (human, UniProt Q96L92 1-541); experiment: as above
T3 construct: SNX27, human, full length; also called hSNX27FL; hSNX27 WT

[2] = molecular target: B1; experiment: ITC; 800 μM hSNX27 FERM titrated into 20 μM GST-mSNX1(1-139) or His-SNX1FL; 25 °C; 50 mM HEPES pH 7.5, 200 mM NaCl, 5% glycerol, 1 mM β-ME; single-site model
[3] = molecular target: T4, full-length mouse SNX1 with an N-terminal His-tag (mouse, UniProt Q9WV80 1-522); experiment: as above
T4 construct: SNX1, mouse, full length; Vector pMW172Kan; also called mSNX1FL; His-SNX1FL; source: E. coli BL21 CodonPlus (DE3), purified (TALON or Ni-NTA, SEC); not shown: His-tag, N-terminal, kept

| Binder | Kd (full-length mouse SNX27) [µM] | also measured |
| --- | --- | --- |
| EAGDSDTEGEDIFTGAA (SNX1, human, residues 35 to 51; also called first aDLF motif of human SNX1; source: synthetic peptide (Genscript)) [SNX1_(35-51) peptide] | 33.4 | – |
| NGIHEEQDQEPQDLFADA (SNX1, human, residues 75 to 92; also called SNX1 75 to 92; hSNX1_(75-92); source: synthetic peptide (Genscript)) [SNX1_(75-92) peptide] | 13.3 | Kd (human SNX27(K496D)): 56.4 µM; Kd [1]: 12.7 µM |
| GST-mSNX1(1-139) (domain or fragment, mouse, UniProt Q9WV80 1-139, looked up, SNX1, mouse, residues 1 to 139; Vector pGEX4T-2, thrombin-cleavable GST; named GST-mSNX1(1-139) in the ITC; also called N-terminal extension of mouse SNX1; source: E. coli BL21 CodonPlus (DE3), purified (glutathione Sepharose, SEC); not shown: GST, N-terminal, kept) MASGGGGCSASERLPPPFPGMDPESEGAAGASEPEAGDSDTEGEDIFTGAAAATKPQSPKKTTSLFPIKNGSKENGIHEDQDQEPQDLFADATVELSLDSTQNNQKTMPGKTLTSHSPQEATNSPKPQPSYEELEEEEQ | – | Kd [2]: 39.1 µM |
| TEVVLDDDREDLFAEATEEVS (SNX2, human, residues 62 to 82; also called SNX2 62 to 82; second aDLF motif of SNX2; source: synthetic peptide (Genscript)) [SNX2_(62-82) peptide] | 22.6 | – |
| TDFEDLEDGEDLFTSTVS (SNX2, human, residues 16 to 33; also called SNX2 16 to 33; first aDLF motif of SNX2; source: synthetic peptide (Genscript)) [SNX2_(16-33) peptide] | 37.8 | – |
| B1 | – | Kd [3]: 41 µM |
